Experimental data taken from US20230192860A1 (Bristol-Myers Squibb, published 2023).
Blank lines part the entries; values can stand above or below the binder they belong to.

Key:
[1] = target: T1, BSA (Calbiochem catalog #126593) (UniProt P02769 25-607); assay: SPR 25C, Ab on Protein A, pH 6 and pH 7.4
T1 construct: pI control protein

[2] = target: T2, avidin (ThermoFisher Scientific catalog #21128) (UniProt P02701 25-152); assay: SPR 25C, Ab on Protein A, pH 6 and pH 7.4
T2 construct: pI control protein
T2 sequence (P02701 25-152 limits assumed): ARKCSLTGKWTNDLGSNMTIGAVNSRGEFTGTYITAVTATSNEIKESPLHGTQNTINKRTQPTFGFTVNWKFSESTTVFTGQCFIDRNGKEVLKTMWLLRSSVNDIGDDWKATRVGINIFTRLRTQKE

[3] = target: T3, monovalent hVISTA-ECD (amino acids 32-193 of SEQ ID NO: 1 with a 7xHis tail) (human, UniProt Q9H7M9 33-193); assay: SPR, Ab on Protein A, hVISTA 100-7.8 nM, pH 7.4 (second row of this ligand)
T3 construct: analyte of the SPR assays; also called huVISTA-His; human VISTA-ECD

[4] = target: T3, monovalent hVISTA-ECD (amino acids …); assay: SPR, pH 7.4 over pH 6.0
Description: (§1) Further binding kinetic experiments were performed at various pHs on VISTA antibodies described herein by SPR as generally described in Example 9 above. Antibodies were normalized to 50 nM concentration in PBST pH 7.4 and captured on a Protein A CM5 chip (ID 4931) by injecting for 45 seconds at a 5 µL/min flow rate. An 8-point human VISTA titration ([…]) was prepared in PBST at pH 7.4, 6.9, 6.45, and 6.0. Titrations were injected over the captured antibodies for 180 seconds at 30 µL/min. Sensorgrams were fit to a 1:1 binding model in T200 evaluation software and the kinetic constants were reported.
Each table reports the data at one of the four tested pHs (7.4, 6.9, 6.45, and 6.0, respectively). The 8-point hVISTA titration used in these assays was chosen to provide increased confidence in kinetic values reported at neutral pH conditions. A relatively stringent cutoff for non-binding was applied in this assay. Certain progeny of P1-061029 antibody (P1-068757, ‘759, ‘765, ‘771, and ‘775) show no binding to hVISTA at micromolar concentrations at pH 7.4, while ‘761 and ‘767 show no binding to hVISTA at 100 nM at pH 7.4 but do show binding to hVISTA at micromolar concentrations.

[5] = target: T3, monovalent hVISTA-ECD (amino acids …); assay: SPR, Ab on Protein A, hVISTA 100-7.8 nM, pH 7.4
Description: as §1

[6] = target: T3, monovalent hVISTA-ECD (amino acids …); assay: SPR 37C, Ab on Protein A, hVISTA-ECD 50-0.2 nM, pH 6.0
Description: (§2) Surface plasmon resonance (SPR) analysis was performed to measure the association rates (defined as ka or kₒₙ, 1/Ms units), dissociation rates (defined as kd or koff, s⁻¹ units) and affinity constants (defined as KD, M units) for VISTA Abs at acidic and physiological pHs using a Biacore® T200 instrument (GE Healthcare). […] Antibodies were diluted to 20 nM in PBST pH 7.4, and were captured across active biosensor flow cells at 5 ul/min for 50 seconds. A concentration series of 50 - 0.2 nM monovalent hVISTA-ECD (SEQ ID NO: 325) was prepared in pH 7.4 and 6.0 running buffers, and was injected over the captured antibodies at 40 ul/min to measure association and dissociation. Two 15 second injections of 10 mM glycine pH 1.5 were used to regenerate the Protein A capture surface between assay cycles. Rate constants kₐ (kₒₙ) and kd (kₒff) were derived from reference flow cell and 0 nM blank-subtracted sensorgrams, and were fit to a 1:1 binding model in Biacore® T200 Evaluation Software v.2.0.

[7] = target: T3, monovalent hVISTA-ECD (amino acids …); assay: SPR 37C, Ab on Protein A, hVISTA-ECD 50-0.2 nM, column headed pH 7 (running buffer pH 7.4 in the text)
Description: as §2

[8] = target: T3, monovalent hVISTA-ECD (amino acids …); assay: SPR 37C, Ab on Protein A, hVISTA-ECD 50-5 nM, pH 7.4, average
Description: Binding of several preparations of each of the ‘029 progeny clones and of the parent ‘029 antibodies, formatted as IgG1.3 antibodies, to human VISTA at pH 6.0 and 7.4 was measured by Surface plasmon resonance (SPR). SPR analysis was performed to measure koff and KD binding affinity measurements for VISTA Abs at acidic and neutral pHs using a Biacore® T100 instrument (GE Healthcare). […] Antibodies were diluted to 25 nM in PBST pH 7.4, and were captured across active biosensor flow cells at 5 ul/min for 60 seconds. A concentration series of 50 - 5 nM monovalent hVISTA-ECD (SEQ ID NO: 325) was prepared in pH 7.4 and 6.0 running buffers, and was injected over the captured antibodies at 40 ul/min to measure association and dissociation. Two 15 second injections of 10 mM glycine pH 1.5 were used to regenerate the Protein A capture surface between assay cycles. Rate constants ka (kₒₙ) and kd (koff) were derived from reference flow cell and 0 nM blank-subtracted sensorgrams, and were fit to a 1:1 binding model in Biacore® T200 Evaluation Software v.2.0. The affinity constant, KD was calculated as the ratio of rate constants koff/kₒₙ for each VISTA antibody.

[9] = target: T3, monovalent hVISTA-ECD (amino acids …); assay: SPR 37C, Ab on Protein A, hVISTA-ECD 50-5 nM, pH 6.0, average
Method in brief: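 Biacore T100 at 37C: antibodies (IgG1.3 format, 25 nM in PBST pH 7.4) captured on Protein A, then 50 - 5 nM monovalent hVISTA-ECD injected in pH 7.4 or 6.0 running buffer. Reference- and blank-subtracted sensorgrams fit to 1:1 model; KD = koff/kon.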

[10] = target: T3, monovalent hVISTA-ECD (amino acids …); assay: SPR 37C, Ab on Protein A, hVISTA-ECD 50-5 nM, pH 6.0, average; ka printed Too fast, KD ND
[11] = target: T4, human VISTA on cells (293T cells ectopically expressing full-length human VISTA); AML3 cells and human … (human, UniProt Q9H7M9 33-311); assay: cell-based or functional assay
T4 sequence: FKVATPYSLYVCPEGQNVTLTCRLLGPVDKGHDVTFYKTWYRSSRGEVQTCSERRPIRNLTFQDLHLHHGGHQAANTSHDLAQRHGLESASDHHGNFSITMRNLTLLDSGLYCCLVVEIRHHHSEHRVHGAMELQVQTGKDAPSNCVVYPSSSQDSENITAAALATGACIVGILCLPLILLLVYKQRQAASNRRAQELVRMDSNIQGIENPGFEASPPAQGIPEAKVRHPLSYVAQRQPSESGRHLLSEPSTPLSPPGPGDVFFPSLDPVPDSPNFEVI

T1 sequence (P02769 25-607 limits assumed): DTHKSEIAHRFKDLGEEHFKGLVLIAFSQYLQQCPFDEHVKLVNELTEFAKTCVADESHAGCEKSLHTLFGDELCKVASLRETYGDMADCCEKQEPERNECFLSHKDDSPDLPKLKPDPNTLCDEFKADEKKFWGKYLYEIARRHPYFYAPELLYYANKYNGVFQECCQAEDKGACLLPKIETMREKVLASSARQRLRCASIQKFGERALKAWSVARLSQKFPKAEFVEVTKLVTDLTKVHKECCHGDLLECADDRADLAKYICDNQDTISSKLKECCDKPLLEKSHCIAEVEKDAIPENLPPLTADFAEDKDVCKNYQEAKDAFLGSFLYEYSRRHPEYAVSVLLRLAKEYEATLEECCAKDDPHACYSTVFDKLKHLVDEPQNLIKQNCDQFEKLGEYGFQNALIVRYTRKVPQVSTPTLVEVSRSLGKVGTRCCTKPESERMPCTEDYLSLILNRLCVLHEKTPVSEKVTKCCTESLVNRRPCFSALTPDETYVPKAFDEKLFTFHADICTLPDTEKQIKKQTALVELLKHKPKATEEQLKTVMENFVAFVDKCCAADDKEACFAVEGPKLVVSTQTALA

B1: P1-068767.IgG1.3 (antibody, V domains shown)
VH: EVQLVESGGGLVQPGKSLRLSCAASGFTLEDYAMHWVRQAPGKGLEWVSGIDWNSENIGYADSVKGRFTISRDNAKNSLYLQMNSLRTEDTALYYCAKVPGYSGGWIDAEDDWGQGTMVTVSS
VL: not shown
notes: IgG1.3; also called P1-068767-22; P1-068767 hIgG1.3f
binding result [1]: no binding (tested: 10 RU; analyte 100-10 nM)
binding result [2]: no binding (tested: 10 RU; analyte 100-10 nM)

Kd [3]: 1400 nM
koff [3]: 0.032 s⁻¹
kon [3]: 24000 M⁻¹ s⁻¹
7.4 KD/ 6.0 KD [4]: 258
7.4 kd/ 6.0 kd [4]: 14.2
Kd [5]: 2700 nM
koff [5]: 0.038 s⁻¹
kon [5]: 14000 M⁻¹ s⁻¹
B2: P1-72000 (P1-061029_F100fE_V102D) (antibody, V domains shown)
VH: EVQLVESGGGLVQPGKSLRLSCAASGFTLDDYAMHWVRQAPGKGLEWVSGINWNSANIGYADSVKGRFTISRDNAKNSLYLQMNSLRTEDTALYYCAKVPGYSGGWIDAEDDWGQGTMVTVSS
VL: not shown
notes: also called P1-072000-3

koff [6]: 0.0014 s⁻¹
7.4 KD/ 6.0 KD [4]: 8.2
7.4 kd/ 6.0 kd [4]: 1.1
Kd [5]: 5.12 nM
koff [5]: 0.00168 s⁻¹
kon [5]: 329000 M⁻¹ s⁻¹
koff [7]: 0.0023 s⁻¹
Kd [8]: 8.8 nM
koff [8]: 0.002 s⁻¹
kon [8]: 230000 M⁻¹ s⁻¹
Kd [9]: 0.54 nM
koff [9]: 0.00095 s⁻¹
kon [9]: 1.8e+06 M⁻¹ s⁻¹
B3: P1-061015.IgG1.3 (antibody, V domains shown)
VH: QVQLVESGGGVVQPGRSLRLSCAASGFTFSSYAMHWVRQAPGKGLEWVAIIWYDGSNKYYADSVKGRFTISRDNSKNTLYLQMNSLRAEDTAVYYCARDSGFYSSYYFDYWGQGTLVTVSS
VL: EIVLTQSPATLSLSPGERATLSCRASQSVSSSYLAWYQQKPGQAPRLLIYDASNRATGIPARFSGSGSGTDFTLTISSLEPEDFATYYCQQYNSYPYTFGQGTKLEIKR
notes: IgG1.3

koff [10]: 0.047 s⁻¹
B4: P1-068740 (antibody, human IgG1, kappa, V domains shown)
VH: QVQLVESGGGVVQPGRSLRLSCAASGFTFSDYAMHWVRQAPGKGLEWVAIIWYDGSDKDYADSVKGRFTISRDNSKNTLYLQMNSLRAEDTAVYYCARDSGFYDSYYFDDWGQGTLVTVSS
VL: EIVLTQSPATLSLSPGERATLSCRASQSVSSSYLAWYQQKPGQAPRLLIYDASNRATGIPARFSGSGSGTDFTLTISSLEPEDFATYYCQQYNSYPYTFGQGTKLEIKR
notes: IgG1.3

B5: VISTA.5 (mAb1) (antibody, V domains shown)
VH: AVQLQESGPGLVRPSQSLSLTCTVTDYSITSDYAWNWIRQFPGSKLEWLGFIGYSGNTNYNPSLESRISITRHTSKNQFFLHLNSMTTEDTATYYCARSLYGGSHWYFDVWGAGTTVTVSS
VL: DIVLTQSPASLAVSLGQRATISCRGSESVEYYGTILMQWYQQKPGQPPKLLIYGASNVESGVPARFSGSGSGTDFSLNIHPVEEDDIAMYFCQQSRKVPWTFGGGTKLEIK
EC50, AML3 viability (Cell Titer Glo) with anti-human IgG secondary antibody-drug conjugate [11]: 0.485 µg/mL
